Source: IntAct's records for PubMed 24944246

B1: Krueppel-like factor 10 (Homo sapiens), Q13118 (parent)
chain: MLNFGASLQQTAEERMEMISERPKESMYSWNKTAEKSDFEAVEALMSMSCSWKSDFKKYVENRPVTPVSDLSEEENLLPGTPDFHTIPAFCLTPPYSPSDFEPSQVSNLMAPAPSTVHFKSLSDTAKPHIAAPFKEEEKSPVSAPKLPKAQATSVIRHTADAQLCNHQTCPMKAASILNYQNNSFRRRTHLNVEAARKNIPCAAVSPNRSKCERNTVADVDEKASAALYDFSVPSSETVICRSQPAPVSPQQKSVLVSPPAVSAGGVPPMPVICQMVPLPANNPVVTTVVPSTPPSQPPAVCPPVVFMGTQVPKGAVMFVVPQPVVQSSKPPVVSPNGTRLSPIAPAPGFSPSAAKVTPQIDSSRIRSHICSHPGCGKTYFKSSHLKAHTRTHTGEKPFSCSWKGCERRFARSDELSRHRRTHTGEKKFACPMCDRRFMRSDHLTKHARRHLSAKKLPNWQMEVSKLNDIALPPTPAPTQ
partner: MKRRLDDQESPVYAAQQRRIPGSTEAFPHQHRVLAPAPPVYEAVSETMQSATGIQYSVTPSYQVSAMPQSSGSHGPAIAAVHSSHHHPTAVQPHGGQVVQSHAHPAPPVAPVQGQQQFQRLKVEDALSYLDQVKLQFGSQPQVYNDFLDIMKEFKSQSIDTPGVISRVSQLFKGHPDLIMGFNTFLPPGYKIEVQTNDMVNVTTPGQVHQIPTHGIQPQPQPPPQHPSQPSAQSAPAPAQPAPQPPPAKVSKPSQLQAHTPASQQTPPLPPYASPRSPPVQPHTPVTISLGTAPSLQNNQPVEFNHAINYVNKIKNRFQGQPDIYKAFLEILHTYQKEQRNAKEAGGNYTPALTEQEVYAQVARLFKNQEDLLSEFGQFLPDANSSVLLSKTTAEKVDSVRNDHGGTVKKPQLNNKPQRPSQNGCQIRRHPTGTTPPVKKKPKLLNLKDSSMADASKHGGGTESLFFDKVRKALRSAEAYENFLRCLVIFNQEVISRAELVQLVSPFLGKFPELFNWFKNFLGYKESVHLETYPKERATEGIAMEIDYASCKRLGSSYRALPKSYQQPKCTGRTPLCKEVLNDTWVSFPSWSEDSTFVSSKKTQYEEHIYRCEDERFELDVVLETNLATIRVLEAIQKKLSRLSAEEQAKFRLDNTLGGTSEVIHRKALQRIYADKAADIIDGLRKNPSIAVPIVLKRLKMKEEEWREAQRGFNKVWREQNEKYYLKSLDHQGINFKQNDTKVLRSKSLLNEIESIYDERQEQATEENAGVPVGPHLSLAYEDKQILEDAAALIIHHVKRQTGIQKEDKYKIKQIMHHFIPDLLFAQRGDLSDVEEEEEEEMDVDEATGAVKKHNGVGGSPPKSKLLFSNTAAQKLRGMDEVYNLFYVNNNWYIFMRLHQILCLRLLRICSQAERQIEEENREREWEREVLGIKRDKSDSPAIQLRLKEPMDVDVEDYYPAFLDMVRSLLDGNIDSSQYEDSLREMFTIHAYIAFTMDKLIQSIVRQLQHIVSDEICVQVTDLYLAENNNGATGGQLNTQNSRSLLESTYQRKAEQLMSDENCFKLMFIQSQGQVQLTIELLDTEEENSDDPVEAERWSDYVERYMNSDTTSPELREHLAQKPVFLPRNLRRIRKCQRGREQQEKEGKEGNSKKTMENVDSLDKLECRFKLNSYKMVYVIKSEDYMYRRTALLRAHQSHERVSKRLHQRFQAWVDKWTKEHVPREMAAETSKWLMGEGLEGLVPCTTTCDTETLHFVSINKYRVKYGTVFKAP

Variants of: B1
Conditions: with sin3a_human SIN3A

| Variant | effect of a mutation on the interaction |
| --- | --- |
| E40P;A41P | disrupting interaction strength |
